From patent CN102050877A (NAT ENGINEERING RES CT OF ANTIBODY MEDICINE SHANGHAI CO LTD, dated 2011)

Biological target: T1, 人CD20 (on Raji cells) (human, UniProt P11836 1-297)
T1 construct: whole, on cells; No recombinant CD20 was used; also called Raja
T1 sequence (looked up): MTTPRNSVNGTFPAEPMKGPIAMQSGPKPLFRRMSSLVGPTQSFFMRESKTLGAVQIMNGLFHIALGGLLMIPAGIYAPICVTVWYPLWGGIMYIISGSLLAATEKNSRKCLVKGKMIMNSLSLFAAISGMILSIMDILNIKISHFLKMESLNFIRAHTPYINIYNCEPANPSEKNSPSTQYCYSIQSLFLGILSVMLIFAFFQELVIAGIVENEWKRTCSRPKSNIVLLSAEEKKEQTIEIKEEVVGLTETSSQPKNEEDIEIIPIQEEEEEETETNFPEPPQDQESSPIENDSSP
Experiment: in vitro antigen binding on Raji cells (flow cytometry)

B1: 抗人CD20人源化抗体hu8E4 (hu8E4Hb/hu8E4Lb) (antibody, human IgG1, kappa, V domains shown)
VH: EVQLVESGGGLVQPGGSLRLSCAASGFTFTSYNMHWVRQAPGKGLEWIGAIYPENGDTSYNQKFKDRATLTADKSKNTAYLQMNSLRAEDTAVYYCARWHYYGNGGALDYWGQGTLVTVSS
VL: DIQMTQSPSSLSASVGDRVTITCRASGNIHNYLAWYQQKPGKAPKLLVHNAKTLPDGVPSRFSGSGSGTDFTLTISSLQPEDFATYYCQQFWSNPWTFGQGTKVEIKR
notes: LCDR1 RASGNIHNYLA, LCDR2 NAKTLPD, LCDR3 QQFWSNPWT; The expression constructs carried signal peptides; also called hu8E4VHb/hu8E4VLb
  binding result: binds
